Test results reported in publication PMC11539162, “Distinct roles for the domains of the mitochondrial aspartate/glutamate carrier citrin in organellar localization and substrate transport” (Molecular Metabolism, 2024).
Changes are numbered by the printed parent chain. In names and notes the source's numbering stands.

B1: human citrin (mitochondrial aspartate/glutamate carrier isoform 2), full-length wild type (natural protein, UniProt Q9UJS0-1 1-675, looked up)
chain: MAAAKVALTKRADPAELRTIFLKYASIEKNGEFFMSPNDFVTRYLNIFGESQPNPKTVELLSGVVDQTKDGLISFQEFVAFESVLCAPDALFMVAFQLFDKAGKGEVTFEDVKQVFGQTTIHQHIPFNWDSEFVQLHFGKERKRHLTYAEFTQFLLEIQLEHAKQAFVQRDNARTGRVTAIDFRDIMVTIRPHVLTPFVEECLVAAAGGTTSHQVSFSYFNGFNSLLNNMELIRKIYSTLAGTRKDVEVTKEEFVLAAQKFGQVTPMEVDILFQLADLYEPRGRMTLADIERIAPLEEGTLPFNLAEAQRQKASGDSARPVLLQVAESAYRFGLGSVAGAVGATAVYPIDLVKTRMQNQRSTGSFVGELMYKNSFDCFKKVLRYEGFFGLYRGLLPQLLGVAPEKAIKLTVNDFVRDKFMHKDGSVPLAAEILAGGCAGGSQVIFTNPLEIVKIRLQVAGEITTGPRVSALSVVRDLGFFGIYKGAKACFLRDIPFSAIYFPCYAHVKASFANEDGQVSPGSLLLAGAIAGMPAASLVTPADVIKTRLQVAARAGQTTYSGVIDCFRKILREEGPKALWKGAGARVFRSSPQFGVTLLTYELLQRWFYIDFGGVKPMGSEPVPKSRINLPAPNPDHVGGYKLAVATFAGIENKFGLYLPLFKPSVSTSKAIGGGP
notes: human citrin (AGC2), full length, codon-optimised cDNA; UniProt Q9UJS0, isoform NP_055066.1; The tag is followed by a TEV site (ENLYFQG); the protein was released from the resin by TEV digestion; NP_055066.1 is printed for the mammalian construct; the yeast construct is called a codon-optimised cDNA of human citrin; also called AGC2; wild-type citrin; source: S. cerevisiae W303-1B, mitochondria …
B2: human citrin D66A/T68A/D70A/E77A, full-length calcium-binding site mutant (natural protein, UniProt Q9UJS0-1 1-675, looked up)
chain: B1 chain with D66A, T68A, D70A, E77A
notes: Same construct as m1 apart from the four substitutions; also called quadruple alanine mutant; quadruple mutant; source: S. cerevisiae W303-1B, mitochondria solubilised in LMNG, purified (nickel Sepharose, on-column TEV digestion); not shown: His8, N-terminal, cleaved

Biological target: the molecule itself
Assay: SEC; size exclusion chromatography of purified full-length citrin and of the calcium-binding site mutant; column and buffer not told

Protein	stoichiometry N
B1	2
B2	2
